Tested on: T1, Twist1
T1 sequence: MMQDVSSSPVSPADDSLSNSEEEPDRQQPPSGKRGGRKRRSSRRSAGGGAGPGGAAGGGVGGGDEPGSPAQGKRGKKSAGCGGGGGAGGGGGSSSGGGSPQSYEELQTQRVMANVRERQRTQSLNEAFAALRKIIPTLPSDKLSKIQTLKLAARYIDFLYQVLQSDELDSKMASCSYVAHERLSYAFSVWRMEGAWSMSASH

For “Akt (protein kinase B), Akt1 and Akt2 of mouse embryonic fibroblasts”, the “Phosphorylation of Twist1 on S42 in Akt1/2-depleted versus wild-type MEFs” value was “Phosphorylation of Twist1 was not detected in Akt1/2-depleted MEFs under basal conditions or after insulin stimulation, but was high in stimulated wild-type MEFs”.

Source: patent US20130171159
